“And” between values parts separate entries of the source, which are not always exact repeats. Equal entries are not always repeated.
Tests used:
[1] = target: C-terminally truncated HRSV nucleoprotein N1-370 (strain Long), as N-RNA assemblies (Human respiratory syncytial virus (strain Long)) (UniProt P03418); assay: cryo-EM structure; purified N-RNA assemblies in TEN buffer (50 mM Tris-HCl, 10 mM EDTA, 150 mM NaCl, pH 7.4), plunge-frozen on holey carbon grids; Glacios microscope, K2 detector; assemblies classified and reconstructed separately
[2] = target: Human respiratory syncytial virus nucleoprotein N, full-length wild type (strain Long), as N-RNA assemblies (Human respiratory syncytial virus (strain Long)) (UniProt P03418); assay: as above

Substance | stoichiometry N [1] | stoichiometry N [2]
C-terminally truncated HRSV nucleoprotein N1-370 (strain Long), as N-RNA assemblies (from UniProt P03418 1-370) (domain or fragment) | 10 | –
Human respiratory syncytial virus nucleoprotein N, full-length wild type (strain Long), as N-RNA assemblies (from UniProt P03418 1-391) (natural protein) | – | 10 and 11

From publication PMC10504348
